The target of experiment [1] is influenza A/Puerto Rico/8/34 (PR8) virus particles (M2 protein on the virion) (influenza A virus H1N1 A/Puerto Rico/8/34) (UniProt P06821). Description: surface plasmon resonance, Fab fragment on influenza virus.
Experiment [2] shares this target. The experiment is described as follows: affinity of FAb fragments on whole PR8 virus.
For experiment [3], the system named is H5N1 (A/Vietnam/1203/04). Details: species or system balb/c mice. The note with it: mouse, in vivo.
Experiment [4] has as its system H5N1 (A/Vietnam/1203/04). Details: species or system balb/c mice. To be noted: mouse, in vivo. The source holds these as a separate data set.
Experiment [5] deals with M2 protein of influenza A/Hong Kong/483/1997 (H5N1), expressed on cells (influenza A virus H5N1 A/Hong Kong/483/97).
A further experiment has as its target HVIR1. The experiment is described as follows: peptide ELISA, mAb 5 µg/mL.

The text below walks through data of patent publication US20140363441A1 (priority 2013, published 2014).

As usually defined, the Kd is the equilibrium constant for the complex coming apart. A word on the koff: it is a measure of how fast the partners let go of each other. A higher koff goes with a short-lived complex. Broadly, the kon is the second-order rate constant of association. Lower therefore signals slow association.

Substitutions are numbered along the chain they refer to. “And” between values parts separate entries of the source, which are not always exact repeats. Equal entries are not always repeated. “Also recorded” adds a separate entry of the source.

In the case of ch14C2 Fab fragment, in experiment [1], the equilibrium dissociation constant (Kd) amounted to 4 µM, the koff turned out to be 0.0018 s⁻¹ and the kon turned out to be 500 M⁻¹ s⁻¹. Moreover, in experiment [2], the Kd turned out to be 4 µM, the koff was 0.00286 s⁻¹ and the kon was 500 M⁻¹ s⁻¹.

In the case of `CCOC(=O)C1=C[C@@H](OC(CC)CC)[C@H](NC(C)=O)[C@@H](N)C1` [oseltamivir], the “percentage of weight remaining” value in the experiment with H5N1 (A/Vietnam/1203/04) [3] is listed as “completely protected; also recorded: retained more weight”. The survival rate result in the experiment with H5N1 (A/Vietnam/1203/04) [4] is reported as “extinction of the population prior to the end of the therapy”.

B1: 3248_P18 (antibody, V domains shown)
VH: QVQLQESGPGLVKPSETLSLTCTVSGGSISAYHWSWIRQPPGKGLEWIGHIFDSGSTYYNPSLKSRVTISLDASKNQLSLRLTSVTASDTAIYYCARPLGSRYYYGMDVWGQGTTVTVSS
VL: DIQMTQSPSSLSASVGDRVTITCRASQSISRYLNWYQQKPGKAPKLLIYGASTLQNGAPSRFSGSGSGTDFTLTISSLQPEDSATYLCQQSYSVPAFGGGTKVEVK
For B1, the MFI in experiment [5] was found to be 967 MFI.

B2: 3244_H04 (antibody, V domains shown)
VH: EVQLVESGGGLVQPGGSLRLSCTASGLSVSSTYMNWVRQAPGKGLEWVSVFYSETRTYYADSVKGRFTVSRHNSNNTLYLQMNSLRAEDTAVYYCARVQRLSYGMDVWGQGTTVTVSS
VL: DIQMTQSPSSLSASVGDRVTITCRASQSISTYLNWYQKRPGKAPKLLVYGASSLQSGVPSRFSGSGSGTDFTLTIASLQPEDSAVYYCQQTYSIPLFGQGTRLEIK
Take B2: the MFI in experiment [5] worked out at 963 MFI.

B3: 3245_O19 (antibody, V domains shown)
VH: B2 VH with A87V
VL: B2 VL with S53T, V85T
Regarding B3, the MFI in experiment [5] is 919 MFI.

B4: 3136_G05 (antibody, V domains shown)
VH: QVQLQESGPGLVKPSETLSLTCSVSGGSISSDFWSWIRQPPGKGLEWIGYVYNRGSTKYSPSLKSRVTISADMSKNQFSLNMSSVTAADTAVYYCAKNGRSSTSWGIDVWGKGTTVTVSS
VL: DIQMTQSPSSLSASVGDRLTITCRASQSISTYLHWYQQKPGKAPKLLIYAASSLQSGVPSRFSGSRSGTDFTLTISSLQPDDFATYYCQQSYSPPLTFGPGTKVDMK
Take B4: the MFI in experiment [5] turned out to be 109 MFI.

B5: 3139_P23 (antibody, V domains shown)
VH: QVQLQESGPRLVKPSESLSLTCTVSGGSISNSFWGWIRQPPGEGLEWIGYVYNSGNTKYNPSLKSRVTISRDTSKSQLYMKLRSVTAADTAVYYCARHDDASHGYSISWGHGTLVTVSS
VL: DIQMTQSPSSLSASVGDRVTITCRASQTISTYLNWYQQKSGKAPKLLIYAASGLQSGVPSRFSGSGSGTDFTLTISSLQPEDFATYFCQQSYNTPLTFGQGTKVEIK
In turn, B5 displayed an MFI in experiment [5] of 110 MFI.

B6: 23K12 (TCN-031) (antibody, V domains shown)
VH: EVQLVESGGGLVQPGGSLRISCAASGFTVSSNYMSWVRQAPGKGLEWVSVIYSGGSTYYADSVKGRFSFSRDNSKNTVFLQMNSLRAEDTAVYYCARCLSRMRGYGLDVWGQGTTVTVS
VL: DIQMTQSPSSLSASVGDRVTITCRTSQSISSYLNWYQQKPGKAPKLLIYAASSLQSGVPSRFSGSGSGTDFTLTISGLQPEDFATYYCQQSYSMPAFGQGTKLEIK
Take B6: the ELISA A450 in the experiment with HVIR1 was 0.21.

B7: 3241_G23 (antibody, V domains shown)
VH: QVQLQQSGPGLVKPSQTLSLTCTVSGGPVSGGGYSWNWIRQRPGQGLEWVGFMFHSGSPRYNPTLKSRITISVDTSKNLVSLKLSSVTAADTAVYFCARVGQMDKYYAMDVWGQGTTVTVSS
VL: DIQMTQSPSSLSSSVGDRVTITCRASQSIGAYVNWYQQKAGKAPQVLIFGASNLQSGVPSRFSGSGSGTDFTLTISSLQPEDFATYFCQQTYSTPITFGQGTRLEIK
For the molecule B7, in experiment [5], the MFI stood at 1700 MFI.

B8: 3260_D19 (antibody, V domains shown)
VH: DMQLVESGGGLVPPGGSLRLSCAASGFSVSDNYINWVRQAPGKGLDWVSVFYSADRTSYADSVKGRFTVSSHDSKNTVYLQMNSLRAEDTAVYYCARVQKSYYGMDVWGQGTTVTVSS
VL: GIQMTQSPSSLSASVGDRVTITCRASQSISRYLNWYLQKPGKAPKLLISGASSLQSGVPSRFSGTGSGTEFTLTISSLQPEDFATYYCQQTFSIPLFGQGTKVEIK
B8 came in with an MFI in experiment [5] of 846 MFI.

B9: 3242_P05 (antibody, V domains shown)
VH: B8 VH
VL: B8 VL
B9 had an MFI in experiment [5] of 596 MFI.

B10: 3259_J21 (antibody, V domains shown)
VH: QVQLQESGPRVVRPSETLSLTCTVSGGSISSYNWIWIRQPPGKGLEWIGHIYDYGRTFYNSSLQSRPTISVDASKNQLSLRLTSVTASDTAVYYCARPLGILHYYAMDLWGQGTTVTVSS
VL: DIQMTQSPLSVSVSVGDRVTIACRASQSIDKFLNWYQQKPGKAPKLLIYGASNLHSGAPSRFSASGSGTDFTLTITNIQTEDFATYLCQQSFSVPAFGGGTKVEIK
In experiment [5], B10 displayed an MFI of 1670 MFI.

B11: 3252_C13 (antibody, V domains shown)
VH: QVQLQESGPGLVKPSETLSLTCTVSGASISSDYWSWIRLPPGKGLEWIGYIYNRGSTKYTPSLKSRVTISLDTAENQFSLRLRSVTAADTAIYYCARHVGGHTYGIDYWGQGTLVTVSS
VL: DIQMTQSPSSLSASVGDRVTITCRASQSISNYLNWYQHKPGEAPKLLNYAASSLQSGVPSRFSASGSGTDFTLTISSLQPEDFATYYCQQSYNTPITFGQGTRLEIK
Molecule B11 registered an MFI in experiment [5] of 449 MFI.

B12: 3255_J06 (antibody, V domains shown)
VH: B11 VH with I92V
VL: B11 VL with T74S, S77G, Q100P
On to B12, for which, in experiment [5], the MFI stood at 442 MFI.

B13: 3362_B11 (antibody, V domains shown)
VH: QVQLQASGPGLVKPSETLSLTCTVSGDSITSGAYYWTWIRQHPGKGLEWIGYIYYSGNTYYNPSLKSRVTISLDTSKNQFSLKVNSVTAADTAVYYCARAASTSVLGYGMDVWGQGTTVTVSS
VL: B11 VL with N31R, H38Q, K39E, E42K, N48V, A64G, N93S, I96L
On to B13, for which the MFI in experiment [5] was 218 MFI.

B14: 3420_I23 (antibody, V domains shown)
VH: QVQLQESGPGLVKPSETLSVTCKVSGDSISSYSWSWIRQPPGKGLEWVGYLYYSGSTKYNPSLKSRTTISVDTSTNQLSLKLSFVTAADTAVYFCARTGSESTTGYGMDVWGQGTTVTVSS
VL: B11 VL with N31T, H38Q, E42K, N48I, Q55H, A64G, T72A, N93S, T94P
B14 yielded an MFI in experiment [5] of 112 MFI.

B15: 8I10 (TCN-032) (antibody, V domains shown)
VH: QVQLQESGPGLVKPSETLSLTCTVSGSSISNYYWSWIRQSPGKGLEWIGFIYYGGNTKYNPSLKSRVTISQDTSKSQVSLTMSSVTAAESAVYFCARASCSGGYCILDYWGQGTLVTVS
VL: DIQMTQSPSSLSASVGDRVTITCRASQNIYKYLNWYQQRPGKAPKGLISAASGLQSGVPSRFSGSGSGTDFTLTITSLQPEDFATYYCQQSYSPPLTFGGGTRVEIK
As for B15, in the experiment with HVIR1, the ELISA A450 was 0.11. Further, the MFI in experiment [5] is 754 MFI and 1080 MFI.

B16: 3253_P10 (antibody, V domains shown)
VH: QVQLQESGPGLLKPSDTLALTCTVSGGSITSDYWSWIRQPPGRGLDWIGFFYNGGSTKYNPSLKSRVTISADTSKNQLSLKLTSVTAADTGVYYCARHDAKFSGSYYVASWGQGTRVTVSS
VL: DIQMTQSPSSLSASVGDRVTISCRASQSISTYLNWYQQQPGKAPKVLISGATDLQSGVPSRFSGSGSGTDFTLTISSLQPEDFATYYCQQSYNTPLIFGQGTKLEIK
As to B16, the MFI in experiment [5] came out at 43 MFI.

B17: 3243_J07 (antibody, V domains shown)
VH: B16 VH with A100V
VL: B16 VL with D53N
For the molecule B17, the MFI in experiment [5] is 131 MFI.

B18: 3244_I10 (antibody, V domains shown)
VH: B16 VH
VL: B16 VL with S49F, D53N
Turning to B18, the MFI in experiment [5] is 434 MFI.
